Common to all, as to assay: Mass spectroscopy proteomics, semi-quantitative binding affinity of serum proteins (plaqueproteome, Table 2)
Settings in all cases: higher number = stronger affinity

The target of assay [1] is T1, Abeta-42 plaque particles (Homo sapiens, UniProt P05067).
T1 construct: Abeta 1-42
The essentials:
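AD patient serum or plasma (50% in PBS) was incubated with Abeta-42 aggregates (30 μg) for 1 h at 37 °C, then stained with Thioflavin S for 30 min. Labeled particles were FACS-sorted, trypsin/Lys-C digested overnight and analyzed by MS/MS. Sequest searched human UniProt; Scaffold/Protein Prophet validated the identifications.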

Assay [2] relates to High Density cholesterol (Chl Large) plaque particles. Details: species or system human. The essentials:
(§1)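 Read-out is MS/MS protein identification (Sequest, strict trypsin, 20 ppm parent tolerance; Scaffold probabilities) of serum proteins bound to flow-sorted cholesterol plaque particles. These particles formed when 50% atherosclerotic serum was incubated with 30 μg cholesterol aggregates for 1 hr at 37° C.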

Assay [3] has as its system Low density cholesterol (Chl small) plaque particles. Details: species or system human. The essentials:
as §1

Assay [4] has as its target T2, alpha-synuclein plaque particles (Homo sapiens, UniProt P37840).
T2 construct: 140 amino acids polypeptide
The essentials: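 AD-subject plasma or serum (800 μL of 50%) mixed with 30 μg preformed alpha-synuclein aggregates for 1 h at 37 °C; Thioflavin S-positive particles isolated by flow sorting. After reduction, acrylamide alkylation and overnight tryptic digestion, serum proteins identified by MS/MS with Sequest and Scaffold.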

Assay [5] deals with Tau plaque particles. Details: species or system human. The essentials: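 Serum or plasma proteins captured on Thioflavin S-labelled Tau plaque particles (Tau-74, Tau-275 oligomers preformed in PBS at 37° C for 2 h; 1 h co-incubation at 37° C) were isolated by FACS sorting, then tryptically digested and identified by MS/MS (Sequest, human UniProt, strict trypsin).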

B1: Protein-glutamine gamma-glutamyltransferase E (protein)
chain: AALGVQSINWQTAFNRQAHHTDKFSSQELILRRGQNFQVLMIMNKGLGSNERLEFIVSTGPYPSESAMTKAVFPLSNGSSGGWSAVLQASNGNTLTISISSPASAPIGRYTMALQIFSQGGISSVKLGTFILLFNPWLNVDSVFMGNHAEREEYVQEDAGIIFVGSTNRIGMIGWNFGQFEEDILSICLSILDRSLNFRRDAATDVASRNDPKYVGRVLSAMINSNDDNGVLAGNWSGTYTGGRDPRSWNGSVEILKNWKKSGFSPVRYGQCWVFAGTLNTALRSLGIPSRVITNFNSAHDTDRNLSVDVYYDPMGNPLDKGSDSVWNFHVWNEGWFVRSDLGPSYGGWQVLDATPQERSQGVFQCGPASVIGVREGDVQLNFDMPFIFAEVNADRITWLYDNTTGKQWKNSVNSHTIGRYISTKAVGSNARMDVTDKYKYPEGSDQERQVFQKALGKLKPNTPFAATSSMGLETEEQEPSIIGKLKVAGMLAVGKEVNLVLLLKNLSRDTKTVTVNMTAWTIIYNGTLVHEVWKDSATMSLDPEEEAEHPIKISYAQYEKYLKSDNMIRITAVCKVPDESEVVVERDIILDNPTLTLEVLNEARVRKPVNVQMLFSNPLDEPVRDCVLMVEGSGLLLGNLKIDVPTLGPKEGSRVRFDILPSRSGTKQLLADFSCNKFPAIKAMLSIDVAE
Regarding B1, in assay [1], the “Semi-quantitative analysis of proteins binding to different plaque particles: Abeta-42” value was found to be 2. In addition, the “Semi-quantitative analysis of proteins binding to different plaque particles: Chl Large” value in assay [2] was found to be 0. In addition, the “Semi-quantitative analysis of proteins binding to different plaque particles: Chl small” value in assay [3] was 0. In addition, in assay [4], the “Semi-quantitative analysis of proteins binding to different plaque particles: Synuclein” value was 0. Moreover, the “Semi-quantitative analysis of proteins binding to different plaque particles: Tau” value in assay [5] stood at 0.

B2: Cluster of Interleukin enhancer-binding factor 3 (protein, UniProt Q12906 1-894, looked up)
Interleukin enhancer-binding …: MRPMRIFVNDDRHVMAKHSSVYPTQEELEAVQNMVSHTERALKAVSDWIDEQEKGSSEQAESDNMDVPPEDDSKEGAGEQKTEHMTRTLRGVMRVGLVAKGLLLKGDLDLELVLLCKEKPTTALLDKVADNLAIQLAAVTEDKYEILQSVDDAAIVIKNTKEPPLSLTIHLTSPVVREEMEKVLAGETLSVNDPPDVLDRQKCLAALASLRHAKWFQARANGLKSCVIVIRVLRDLCTRVPTWGPLRGWPLELLCEKSIGTANRPMGAGEALRRVLECLASGIVMPDGSGIYDPCEKEATDAIGHLDRQQREDITQSAQHALRLAAFGQLHKVLGMDPLPSKMPKKPKNENPVDYTVQIPPSTTYAITPMKRPMEEDGEEKSPSKKKKKIQKKEEKAEPPQAMNALMRLNQLKPGLQYKLVSQTGPVHAPIFTMSVEVDGNSFEASGPSKKTAKLHVAVKVLQDMGLPTGAEGRDSSKGEDSAEETEAKPAVVAPAPVVEAVSTPSAAFPSDATAEQGPILTKHGKNPVMELNEKRRGLKYELISETGGSHDKRFVMEVEVDGQKFQGAGSNKKVAKAYAALAALEKLFPDTPLALDANKKKRAPVPVRGGPKFAAKPHNPGFGMGGPMHNEVPPPPNLRGRGRGGSIRGRGRGRGFGGANHGGYMNAGAGYGSYGYGGNSATAGYSQFYSNGGHSGNASGGGGGGGGGSSGYGSYYQGDNYNSPVPPKHAGKKQPHGGQQKPSYGSGYQSHQGQQQSYNQSPYSNYGPPQGKQKGYNHGQGSYSYSNSYNSPGGGGGSDYNYESKFNYSGSGGRSGGNSYGSGGASYNPGSHGGYGGGSGGGSSYQGKQGGYSQSNYNSPGSGQNYSGPPSSYQSSQGGYGRNADHSMNYQYR
In the case of B2, the “Semi-quantitative analysis of proteins binding to different plaque particles: Abeta-42” value in assay [1] stood at 4. For the same molecule, the “Semi-quantitative analysis of proteins binding to different plaque particles: Chl Large” value in assay [2] was 0. For the same molecule, the “Semi-quantitative analysis of proteins binding to different plaque particles: Chl small” value in assay [3] amounted to 0. Further, the “Semi-quantitative analysis of proteins binding to different plaque particles: Synuclein” value in assay [4] was determined as 0. For the same molecule, the “Semi-quantitative analysis of proteins binding to different plaque particles: Tau” value in assay [5] stood at 0.

B3: Interleukin enhancer-binding factor 3 (protein)
chain: MRPMRIFVNDDRHVMAKHSSVYPTQEELEAVQNMVSHTERALKAVSDWIDEQEKGSSEQAESDNMDVPPEDDSKEGAGEQKTEHMTRTLRGVMRVGLVAKGLLLKGDLDLELVLLCKEKPTTALLDKVADNLAIQLAAVTEDKYEILQSVDDAAIVIKNTKEPPLSLTIHLTSPVVREEMEKVLAGETLSVNDPPDVLDRQKCLAALASLRHAKWFQARANGLKSCVIVIRVLRDLCTRVPTWGPLRGWPLELLCEKSIGTANRPMGAGEALRRVLECLASGIVMPDGSGIYDPCEKEATDAIGHLDRQQREDITQSAQHALRLAAFGQLHKVLGMDPLPSKMPKKPKNENPVDYTVQIPPSTTYAITPMKRPMEEDGEEKSPSKKKKKIQKKEEKAEPPQAMNALMRLNQLKPGLQYKLVSQTGPVHAPIFTMSVEVDGNSFEASGPSKKTAKLHVAVKVLQDMGLPTGAEGRDSSKGEDSAEETEAKPAVVAPAPVVEAVSTPSAAFPSDATAEQGPILTKHGKNPVMELNEKRRGLKYELISETGGSHDKRFVMEVEVDGQKFQGAGSNKKVAKAYAALAALEKLFPDTPLALDANKKKRAPVPVRGGPKFAAKPHNPGFGMGGPMHNEVPPPPNLRGRGRGGSIRGRGRGRGFGGANHGGYMNAGAGYGSYGYGGNSATAGYSQFYSNGGHSGNASGGGGGGGGGSSGYGSYYQGDNYNSPVPPKHAGKKQPHGGQQKPSYGSGYQSHQGQQQSYNQSPYSNYGPPQGKQKGYNHGQGSYSYSNSYNSPGGGGGSDYNYESKFNYSGSGGRSGGNSYGSGGASYNPGSHGGYGGGSGGGSSYQGKQGGYSQSNYNSPGSGQNYSGPPSSYQSSQGGYGRNADHSMNYQYR
As for B3, the “Semi-quantitative analysis of proteins binding to different plaque particles: Abeta-42” value in assay [1] is 4. Also, the “Semi-quantitative analysis of proteins binding to different plaque particles: Chl Large” value in assay [2] is on record as 0. In addition, the “Semi-quantitative analysis of proteins binding to different plaque particles: Chl small” value in assay [3] amounted to 0. For the same molecule, in assay [4], the “Semi-quantitative analysis of proteins binding to different plaque particles: Synuclein” value is 0. The “Semi-quantitative analysis of proteins binding to different plaque particles: Tau” value in assay [5] came out at 0.

B4: Pregnancy zone protein (protein)
chain: TEPQYMVLVPSLLHTEAPKKGCVLLSHLNETVTVSASLESGRENRSLFTDLVAEKDLFHCVSFTLPRISASSEVAFLSIQIKGPTQDFRKRNTVLVLNTQSLVFVQTDKPMYKPGQTVRFRVVSVDENFRPRNELIPLIYLENPRRNRIAQWQSLKLEAGINQLSFPLSSEPIQGSYRVVVQTESGGRIQHPFTVEEFVLPKFEVKVQVPKIISIMDEKVNITVCGEYTYGKPVPGLATVSLCRKLSRVLNCDKQEVCEEFSQQLNSNGCITQQVHTKMLQITNTGFEMKLRVEARIREEGTDLEVTANRISEITNIVSKLKFVKVDSHFRQGIPFFAQVLLVDGKGVPIPNKLFFISVNDANYYSNATTNEQGLAQFSINTTSISVNKLFVRVFTVHPNLCFHYSWVAEDHQGAQHTANRVFSLSGSYIHLEPVAGTLPCGHTETITAHYTLNRQAMGELSELSFHYLIMAKGVIVRSGTHTLPVESGDMKGSFALSFPVESDVAPIARMFIFAILPDGEVVGDSEKFEIENCLANKVDLSFSPAQSPPASHAHLQVAAAPQSLCALRAVDQSVLLMKPEAELSVSSVYNLLTVKDLTNFPDNVDQQEEEQGHCPRPFFIHNGAIYVPLSSNEADIYSFLKGMGLKVFTNSKIRKPKSCSVIPSVSAGAVGQGYYGAGLGVVERPYVPQLGTYNVIPLNNEQSSGPVPETVRSYFPETWIWELVAVNSSGVAEVGVTVPDTITEWKAGAFCLSEDAGLGISSTASLRAFQPFFVELTMPYSVIRGEVFTLKATVLNYLPKCIRVSVQLKASPAFLASQNTKGEESYCICGNERQTLSWTVTPKTLGNVNFSVSAEAMQSLELCGNEVVEVPEIKRKDTVIKTLLVEAEGIEQEKTFSSMTCASGANVSEQLSLKLPSNVVKESARASFSVLGDILGSAMQNIQNLLQMPYGCGEQNMVLFAPNIYVLNYLNETQQLTQEIKAKAVGYLITGYQRQLNYKHQDGSYSTFGERYGRNQGNTWLTAFVLKTFAQARSYIFIDEAHITQSLTWLSQMQKDNGCFRSSGSLLNNAIKGGVEDEATLSAYVTIALLEIPLPVTNPIVRNALFCLESAWNVAKEGTHGSHVYTKALLAYAFSLLGKQNQNREILNSLDKEAVKEDNLVHWERPQRPKAPVGHLYQTQAPSAEVEMTSYVLLAYLTAQPAPTSGDLTSATNIVKWIMKQQNAQGGFSSTQDTVVALHALSRYGAATFTRTEKTAQVTVQDSQTFSTNFQVDNNNLLLLQQISLPELPGEYVITVTGERCVYLQTSMKYNILPEKEDSPFALKVQTVPQTCDGHKAHTSFQISLTISYTGNRPASNMVIVDVKMVSGFIPLKPTVKMLERSSSVSRTEVSNNHVLIYVEQVTNQTLSFSFMVLQDIPVGDLKPAIVKVYDYYETDESVVAEYIAPCSTDTEHGNV
Consider B4, for which the “Semi-quantitative analysis of proteins binding to different plaque particles: Abeta-42” value in assay [1] was 4. Besides, the “Semi-quantitative analysis of proteins binding to different plaque particles: Chl Large” value in assay [2] was determined as 0. In addition, the “Semi-quantitative analysis of proteins binding to different plaque particles: Chl small” value in assay [3] is listed as 2. Further, in assay [4], the “Semi-quantitative analysis of proteins binding to different plaque particles: Synuclein” value was 0. Also, in assay [5], the “Semi-quantitative analysis of proteins binding to different plaque particles: Tau” value was 0.

Source of the values: patent US9618524B2, “Method, composition, isolation and identification of a plaque particle and related biomarker” (Plaxgen Inc., priority 2012, dated 2017).
